Source: patent US20210388087A1 (Chugai, published 2021)
Substitutions are numbered along the chain they refer to.

B1: H183/L072 VL T97F (antibody, name in Kabat numbering, V domains shown)
VH: QVQLVESGGGLVQPGRSLRLSCAASGFTFSNAWMHWVRQAPGKGLEWVAQIKDKGNAYAAYYAPSVKGRFTISRDDSKNSIYLQMNSLKTEDTAVYYCHYVHYASASTVLPAFGVDAWGQGTTVTVSS
VL: DIVMTQSPLSLPVTPGEPASISCQASQELVHMNRNTYLHWYQQKPGQAPRLLIYKVSNRFPGVPDRFSGSGSGTDFTLKISRVEAEDVGVYYCAQGTSVPFFFGQGTKLEIK
notes: Dual-Ig
B2: H183/L072 VL V51E (antibody, name in Kabat numbering, V domains shown)
VH: B1 VH
VL: B1 VL with V56E, F102T
notes: Dual-Ig
B3: H183/L072 VL V27cL (antibody, name in Kabat numbering, V domains shown)
VH: B1 VH
VL: B1 VL with V30L, F102T
notes: Dual-Ig
B4: H183/L072 VL V51I (antibody, name in Kabat numbering, V domains shown)
VH: B1 VH
VL: B1 VL with V56I, F102T
notes: Dual-Ig
B5: H183/L072 VL V51L (antibody, name in Kabat numbering, V domains shown)
VH: B1 VH
VL: B1 VL with V56L, F102T
notes: Dual-Ig
B6: H183/L072 VL V27cE (antibody, name in Kabat numbering, V domains shown)
VH: B1 VH
VL: B1 VL with V30E, F102T
notes: Dual-Ig
B7: H183/L072 VL V51N (antibody, name in Kabat numbering, V domains shown)
VH: B1 VH
VL: B1 VL with V56N, F102T
notes: Dual-Ig
B8: H183/L072 VL T97R (antibody, name in Kabat numbering, V domains shown)
VH: B1 VH
VL: B1 VL with F102R
notes: Dual-Ig
B9: H183/L072 VL T97H (antibody, name in Kabat numbering, V domains shown)
VH: B1 VH
VL: B1 VL with F102H
notes: Dual-Ig
B10: H183/L072 VL V51R (antibody, name in Kabat numbering, V domains shown)
VH: B1 VH
VL: B1 VL with V56R, F102T
notes: Dual-Ig
B11: H183/L072 VL T97I (antibody, name in Kabat numbering, V domains shown)
VH: B1 VH
VL: B1 VL with F102I
notes: Dual-Ig
B12: H183/L072 VL V27cM (antibody, name in Kabat numbering, V domains shown)
VH: B1 VH
VL: B1 VL with V30M, F102T
notes: Dual-Ig
B13: H183/L072 VL V51K (antibody, name in Kabat numbering, V domains shown)
VH: B1 VH
VL: B1 VL with V56K, F102T
notes: Dual-Ig
B14: H183/L072 VL V27cN (antibody, name in Kabat numbering, V domains shown)
VH: B1 VH
VL: B1 VL with V30N, F102T
notes: Dual-Ig
B15: H183/L072 VL V27cK (antibody, name in Kabat numbering, V domains shown)
VH: B1 VH
VL: B1 VL with V30K, F102T
notes: Dual-Ig
B16: H183/L072 VL V27cI (antibody, name in Kabat numbering, V domains shown)
VH: B1 VH
VL: B1 VL with V30I, F102T
notes: Dual-Ig
B17: H183/L072 VL V27cG (antibody, name in Kabat numbering, V domains shown)
VH: B1 VH
VL: B1 VL with V30G, F102T
notes: Dual-Ig
B18: H183/L072 VL T97Q (antibody, name in Kabat numbering, V domains shown)
VH: B1 VH
VL: B1 VL with F102Q
notes: Dual-Ig
B19: H183/L072 VL V51Q (antibody, name in Kabat numbering, V domains shown)
VH: B1 VH
VL: B1 VL with V56Q, F102T
notes: Dual-Ig
B20: H183/L072 VL V51A (antibody, name in Kabat numbering, V domains shown)
VH: B1 VH
VL: B1 VL with V56A, F102T
notes: Dual-Ig
B21: H183/L072 VL T97P (antibody, name in Kabat numbering, V domains shown)
VH: B1 VH
VL: B1 VL with F102P
notes: Dual-Ig
B22: H183/L072 VL V27cQ (antibody, name in Kabat numbering, V domains shown)
VH: B1 VH
VL: B1 VL with V30Q, F102T
notes: Dual-Ig
B23: H183/L072 VL V27cS (antibody, name in Kabat numbering, V domains shown)
VH: B1 VH
VL: B1 VL with V30S, F102T
notes: Dual-Ig
B24: H183/L072 VL T97M (antibody, name in Kabat numbering, V domains shown)
VH: B1 VH
VL: B1 VL with F102M
notes: Dual-Ig
B25: H183/L072 VL V51G (antibody, name in Kabat numbering, V domains shown)
VH: B1 VH
VL: B1 VL with V56G, F102T
notes: Dual-Ig
B26: H183/L072 VL V27cH (antibody, name in Kabat numbering, V domains shown)
VH: B1 VH
VL: B1 VL with V30H, F102T
notes: Dual-Ig
B27: H183/L072 VL T97W (antibody, name in Kabat numbering, V domains shown)
VH: B1 VH
VL: B1 VL with F102W
notes: Dual-Ig
B28: H183/L072 VL T97K (antibody, name in Kabat numbering, V domains shown)
VH: B1 VH
VL: B1 VL with F102K
notes: Dual-Ig
B29: H183/L072 VL V27cA (antibody, name in Kabat numbering, V domains shown)
VH: B1 VH
VL: B1 VL with V30A, F102T
notes: Dual-Ig
B30: H183/L072 VL T97N (antibody, name in Kabat numbering, V domains shown)
VH: B1 VH
VL: B1 VL with F102N
notes: Dual-Ig
B31: H183/L072 VL T97S (antibody, name in Kabat numbering, V domains shown)
VH: B1 VH
VL: B1 VL with F102S
notes: Dual-Ig
B32: H183/L072 VL T97L (antibody, name in Kabat numbering, V domains shown)
VH: B1 VH
VL: B1 VL with F102L
notes: Dual-Ig
B33: H183/L072 VL V27cY (antibody, name in Kabat numbering, V domains shown)
VH: B1 VH
VL: B1 VL with V30Y, F102T
notes: Dual-Ig
B34: H183/L072 VL V51H (antibody, name in Kabat numbering, V domains shown)
VH: B1 VH
VL: B1 VL with V56H, F102T
notes: Dual-Ig
B35: H183/L072 VL V27cT (antibody, name in Kabat numbering, V domains shown)
VH: B1 VH
VL: B1 VL with V30T, F102T
notes: Dual-Ig
B36: H183/L072 VL V51P (antibody, name in Kabat numbering, V domains shown)
VH: B1 VH
VL: B1 VL with V56P, F102T
notes: Dual-Ig
B37: H183/L072 VL T97G (antibody, name in Kabat numbering, V domains shown)
VH: B1 VH
VL: B1 VL with F102G
notes: Dual-Ig
B38: H183/L072 VL V27cR (antibody, name in Kabat numbering, V domains shown)
VH: B1 VH
VL: B1 VL with V30R, F102T
notes: Dual-Ig
B39: H183/L072 VL V27cD (antibody, name in Kabat numbering, V domains shown)
VH: B1 VH
VL: B1 VL with V30D, F102T
notes: Dual-Ig
B40: H183/L072 VL V27cW (antibody, name in Kabat numbering, V domains shown)
VH: B1 VH
VL: B1 VL with V30W, F102T
notes: Dual-Ig
B41: H183/L072 VL V51M (antibody, name in Kabat numbering, V domains shown)
VH: B1 VH
VL: B1 VL with V56M, F102T
notes: Dual-Ig
B42: H183/L072 VL V27cP (antibody, name in Kabat numbering, V domains shown)
VH: B1 VH
VL: B1 VL with V30P, F102T
notes: Dual-Ig
B43: H183/L072 VL V51F (antibody, name in Kabat numbering, V domains shown)
VH: B1 VH
VL: B1 VL with V56F, F102T
notes: Dual-Ig
B44: H183/L072 VL T97V (antibody, name in Kabat numbering, V domains shown)
VH: B1 VH
VL: B1 VL with F102V
notes: Dual-Ig
B45: H183/L072 VL V27cF (antibody, name in Kabat numbering, V domains shown)
VH: B1 VH
VL: B1 VL with V30F, F102T
notes: Dual-Ig
B46: H183/L072 VL V51D (antibody, name in Kabat numbering, V domains shown)
VH: B1 VH
VL: B1 VL with V56D, F102T
notes: Dual-Ig

These binders were tested against T1, Human CD137 ECD (human) (assay: Biacore SPR, vs parent H183/L072).
T1 construct: entry includes C-terminal His-tag and biotin acceptor peptide; also called human CD137 extracellular domain; 4-1BB
T1 sequence (chain, as listed by the source limits assumed): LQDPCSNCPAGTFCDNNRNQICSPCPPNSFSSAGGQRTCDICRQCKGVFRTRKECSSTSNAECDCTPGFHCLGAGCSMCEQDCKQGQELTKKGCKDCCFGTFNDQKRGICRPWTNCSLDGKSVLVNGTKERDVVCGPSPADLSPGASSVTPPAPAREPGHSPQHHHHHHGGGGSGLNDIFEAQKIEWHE

fold change of affinity	Binder
0.3 fold	B1
0.6 fold	B2
0.8 fold	B3
0.6 fold	B4
1.7 fold	B5
0.7 fold	B6
0.3 fold	B7
0.9 fold	B8
0.6 fold	B9
1.4 fold	B10
1.3 fold	B11
0.9 fold	B12
1.4 fold	B13
0.5 fold	B14
0.9 fold	B15
1 fold	B16
0.4 fold	B17
0.7 fold	B18
0.8 fold	B19
0.8 fold	B20
0 fold	B21
0.8 fold	B22
0.3 fold	B23

fold change of affinity	Binder
1.1 fold	B24
0.4 fold	B25
0.6 fold	B26
0.1 fold	B27
1.1 fold	B28
0.5 fold	B29
0.5 fold	B30
0.8 fold	B31
0.3 fold	B32
0.7 fold	B33
0.6 fold	B34
0.7 fold	B35
0 fold	B36
0.6 fold	B37
0.9 fold	B38
0.3 fold	B39
0.7 fold	B40
1 fold	B41
0.5 fold	B42
0.2 fold	B43
1 fold	B44
0.6 fold	B45
0 fold	B46
